In assay [1] the target is T1, anti-PD-1/TIGIT/human serum albumin trispecific antibody Bi-72-73. The assay is described as follows: flow cytometry on CHO-hTIGIT cells.
The target in assay [2] is T2, anti-PD-1/TIGIT/human serum albumin trispecific antibody Bi-70-71. The assay is described as follows: flow cytometry on CHO-hTIGIT cells.
Assay [3] deals with T1, anti-PD-1/TIGIT/human serum albumin …. The assay is described as follows: BLI (Octet), antibody held on PD-1 sensor, human TIGIT 100 nM in solution. On the technique in general: In BLI a coated tip is dipped into the sample, and binding shifts an interference pattern.
For assay [4], the target named is T2, anti-PD-1/TIGIT/human serum albumin …. Described as above.
The target of assay [5] is T3, human PD-L2 expressed on CHO cells (CHO-hPD-L2 cells) (human, UniProt Q9BQ51 20-273).
T3 construct: whole, on cells; also called CHO-KI-PD-L1/PD-L2
T3 sequence (looked up): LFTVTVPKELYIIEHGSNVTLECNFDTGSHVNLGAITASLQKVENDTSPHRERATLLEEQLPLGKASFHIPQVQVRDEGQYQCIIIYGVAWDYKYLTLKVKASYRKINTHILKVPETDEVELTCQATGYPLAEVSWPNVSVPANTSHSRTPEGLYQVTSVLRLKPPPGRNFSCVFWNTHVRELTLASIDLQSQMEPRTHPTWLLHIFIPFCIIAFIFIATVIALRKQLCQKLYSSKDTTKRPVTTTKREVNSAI
Kind of assay: flow cytometry on CHO-hPD-L2 cells.

Assay [6] addresses T4, human PD-L1 expressed on CHO cells (CHO-hPD-L1 cells) (human, UniProt Q9NZQ7 19-290).
T4 construct: whole, on cells; also called CHO-KI-PD-L1/PD-L2
The assay is described as follows: flow cytometry on CHO-hPD-L1 cells. Background: Flow cytometry measures light scatter and fluorescence of single cells or particles in a stream.

Data on 3 molecules can be found in US20230167200A1 (BIOTHEUS, published 2023).

T4 sequence (Q9NZQ7 19-290): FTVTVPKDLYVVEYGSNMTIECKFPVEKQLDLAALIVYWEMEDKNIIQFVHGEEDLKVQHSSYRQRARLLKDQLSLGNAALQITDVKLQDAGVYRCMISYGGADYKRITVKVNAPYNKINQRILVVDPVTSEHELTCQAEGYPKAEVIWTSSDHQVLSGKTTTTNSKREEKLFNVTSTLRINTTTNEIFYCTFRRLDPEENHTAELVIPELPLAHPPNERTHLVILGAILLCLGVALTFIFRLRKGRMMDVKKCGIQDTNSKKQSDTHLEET

B1: human TIGIT expressed on CHO cells (CHO-hTIGIT cells) (receptor, UniProt Q495A1 22-244, looked up)
chain: MMTGTIETTGNISAEKGGSIILQCHLSSTTAQVTQVNWEQQDQLLAICNADLGWHISPSFKDRVAPGPGLGLTLQSLTVNDTGEYFCIYHTYPDGTYTGRIFLEVLESSVAEHGARFQIPLLGAMAATLVVICTAVIVVVALTRKKKALRIHSVEGDLRRKSAGQEEWSPSAPSPPGSCVQAEAAPAGLCGEQRGEDCAELHDYFNVLSYRSLGNCSFFTETG
notes: whole, on cells; also called CHO-hTIGIIT
With B1, the binding result in assay [1] and in assay [2] was “binds” throughout.

B2: human TIGIT (ACROBiosystems) (receptor, UniProt Q495A1 22-141, looked up)
chain: MMTGTIETTGNISAEKGGSIILQCHLSSTTAQVTQVNWEQQDQLLAICNADLGWHISPSFKDRVAPGPGLGLTLQSLTVNDTGEYFCIYHTYPDGTYTGRIFLEVLESSVAEHGARFQIP
notes: Bought protein
For B2, the binding result in assay [3] and in assay [4] was “binds” each time.

B3: anti-PD-L1/PD-L2 bispecific antibody Fc fusion protein Bi-203-204 (bispecific antibody, human IgG1, kappa, L234A L235A, V domains shown)
V domain 1: QVQLVESGGGLVKPGGSLRLSCAASGHTFIIYAIGWFRQAPGKGLEFVATINWSGSMTNYADSVKGRFTISRDNAKNTVYLQMNSLKPDDTAVYYCAAYVGATISTAHSRYDYWGQGTLVTVSS
V domain 2: EVQLVESGGGLVQPGGSLRLSCAASGRTFSSMTIGWFRQAPGKGLEFVSGIGWTSGLTVYADSVKGRFTISRDNAKNSMYLQMNSLRAEDTAVYYCAADSMNRGQFDYWGQGTLVTVSS
In the case of B3, the binding result in assay [5] and in assay [6] was “binds” throughout.
